Assay results: the DeepSol protein solubility set

assay: soluble on expression in E. coli; label from the status in PepcDB or PDB records

| Sequence | soluble on expression in E. coli |
| --- | --- |
| SLAPTTEIEPIEAQSLKKLSLKSLKRSLELFSPVHGQFPPPDPEAKQIRLSHKMKVAFGGVEPVVSQPPRQPDRINEQPGPSNALSLAAPEGSKSTQKGATESAIVVGPTLLRPILPKGLNYTGSSGKSTTIIPANVSSYQRNLSTAALMERIPSRWPRPEWHAPWKNYRVIQGHLGWVRSVAFDPSNEWFCTGSADRTIKIWDVATGVLKLTLTGHIEQVRGLAVSNRHTYMFSAGDDKQVKCWDLEQNKVIRSYHGHLSGVYCLALHPTLDVLLTGGRDSVCRVWDIRTKMQIFALSGHDNTVCSVFTRPTDPQVVTGSHDTTIKFWDLRYGKTMSTLTHHKKSVRAMTLHPKENAFASASADNTKKFSLPKGEFCHNMLSQQKTIINAMAVNEDGVMVTGGDNGSIWFWDWKSGHSFQQSETIVQPGSLESEAGIYAACYDNTGSRLVTCEADKTIKMWKEDENATPETHPINFKPPKEIRRF | soluble |
| MLVNGKWTADWQPVQKADDHGRFVRQVSSFRNWITPDGSAGPTGTGGFAAEAGRYRLYVALICPWASRTLMARRLKGLDGLIPVTVVNPVMGTQGWEFGGHDDAEEDPLFGARHLHEIYTRAEPQFTGRATVPVLWDMKRDAMVNNESADILRMFDTAFEGLAPSDLRLYPAALAGEIDALNAQVYDRLNNGVYKAGFASTQEAYDEAVAGVFEMLDHLEYRLTGDYIFGGALTETDIRIFVTLIRFDAAYHGLFKTNRRQIADYPRLWAYMRRILARPGVRETVNMDHITRGYYSIKALNPSRIRPVGPAHIEAALRETAAGI | not soluble |
| EMDRRAALSGAAGAFMAACDEAVRELLLAMNFSDHDAEAIITGAAPPQLEHAASGVVSLVLRLKSSVLSHYIKHLNNAAARSQAAAASTAAVDGNAEDAADKHGAKATSAAKAPPAAGGGAGDAADQQLSTGEACLVQLQLYGGVGDALLQLLRSKLRGSACQLWALAHIVHPHPSRSEKESLAAYTGKSTKQVTDWFTNWRARHWRPAIMALQKGAAGGAAGGSLG | soluble |
| MNTNMVASELGVSAKTVQRWVKQLNLPAERNELGHYSFTAEDVKVLKSVQKQISEGTAIQDIHLPKSAKKRTGFLVQKTSSDTERRIEQLEQKLDTLLQQRQDESELMARMSELERQLKQKADEGVSYQLLQHRREIDDILADLQSLTSQMKEFTAHSIPETAAASEKTKTRKKPLLSLFKFQTLEHHHHHH | not soluble |
| MGSDKIHHHHHHMRPTAIGSVCTPFVCWSCVARHGNTHVCWSCSVASVPCVTRAPVSVPGGLAAVCRTWLRRKGDLMNQGRPGVHVRVFDARVGDRVVVEPKGVGDRFMSVFVGWDAGRYLIVKMPSNLALKDHLYPDKPVVLRYLHCTGEVHGCETTIETSVAVPHRLLFLRHPESVEAVSLRKDAWVNCSVPALLRHEAGNMAGYLLDVSRGGCKVAYFEEEGLPTLAAGTEVQCSFRLPGGEQPVEVGAVVRNVAGEGGRIVCGLEFRDAPEPVVAAIGAYVDAAAFLVGTSCADRVVR | not soluble |
| MINVLIIDDDAMVAELNRRYVAQIPGFQCCGTASTLEKAKEIIFNSDTPIDLILLDIYMQKENGLDLLPVLHNARCKSDVIVISSAADAATIKDSLHYGVVDYLIKPFQASRFEEALTGWRQKKMALEKHQYYDQAELDQLIHGSSSNEQDPRRLPKGLTPQTLRTLCQWIDAHQDYEFSTDELANEVNISRVSCRKYLIWLVNCHILFTSIHYGVTGRPVYRYRIQAEHYSLLKQYCQ | soluble |
| MPILFDCNAIASQVLKDEASALLESVGQFQKPNDLEAIVKLILKSQENGGKLVIVGVGKSALVAQKIVASMLSTGNRSAFLHPTEAMHGDLGMVEKNDVVLMISYGGESLELLNLVSHLKRLSHKIITFTKSPNSSLSKLGDYYLSLKIQKEACPINTAPTTSTTLTLALGDVLMACLMRAKNFSQEDFASFHPGGLLGKKLFVKVKDLLQTTNLPLIAPSTSFKDALIEMSEKRLGSAILVNEANELVGVLSDGDVRRALLKGVSLKSEVRHFATLKPKSFKNLDALLLEALEFLERHKIQLLVCVDDHNKVLGVLHLHQLLELGLKA | not soluble |
| MNTLLLDKGEQQVHLNLKYANRHGLIAGATGTGKTVSLMSLAEGFSRQGVPVFITDIKGDISGLGVAGTPNDKLLQRAAEIGVEGYQTEANPVVFWDLAGIQGHPLRTTVSEMGPTLLGRILELNDTQSSILDIVFQLADDQGLLLLDLDDLRAMLNLVADERKDISAKYGLISAQSLAAIQRSVLGLERDGGKDFFGEPALQLEDLMRTNLQGRGIINLLAANKLILTPNLYSSFLLWLLSELFENLPEVGDLDKPKLVFFIDEAHLLFEGCPASLLKRIEQIMRLIRSKGVGVYFCSQFPDDIPNEILGQLGNRIQHALRAYTPRDQKAVKTAAETFVSNPKLVVSEVISQLAVGEALVSTLAEKGVPTMVERTLIAPPRCRMGPANPEELTAIRALSPIGGKYDTLINRESAYERLNQRHTDETNGVNTAQPAANEAEQGWLSELIFGNKRRQGLAETLSKQAARTVGNQLGKQILRGLLGGILGKSTRR | not soluble |
| GPGSMPTLAVAKDYICRLIGKSYTDEEFSDLCFQFGLELDDITSEKEMFMREQGKSAKANVAPAEAPAHLSEEKLYKIDTPANRHDLLTAEGMACALRVFMGTMPLPNYRVLNRASPLYRMSVEKSVKNVRDYVVCAVLRNIHFNERSYNSFIDYQERLHAGLARRRTLASVGTHDLDKVNTTDFIFACRPRETVRFVPLRQTRELNCAGDGLAQYYAEDRHIGKYVPLISSFPTYPVVYDGTGQNVLSLPPIINSHYSAISVDTRNIFIECTAPDHYKAQVLVNQLVCAFSVYCEDPFTVEAVQVNYEEPTPDGTRSLVTPTMETKEMTMNIERLNSIIGIKMKSGAECAQLLKMMMYTIKETTESEVTVTVPPMRTDVIGVADVMEDVAIAYGYDNITYVECKTHGPVTQTPLSKVAQLLRTEMACAGYTELLTLSLCSRADAFESLGRVDNDVAAHIANPQTMEFQVCRPSLLPGILKTLATNKSKPLPQRFFECADVVLLDNERNFPPVLELKTDYASCGARNQRHLAAAHCNGSSSGFESIHGLTELALLKLGVPSKAAIADDYEGDYYTLEKGEDGAFFPGRAMDIILHRAGQAVRIGHLGVIHPNTLKAYDIPSPCSYMELNIQFLCVPL | not soluble |
| MSLKKQPLAYRMRPSNIDEVIGQQHLVGEGKIIRRMVDAGQLSSMILYGPPGVGKTSIAQAIAGSTDTHYKLLNAVVNNKKDMEIVVEEAKMSGQLILILDEVHRLDKGKQDFLLPHLEKGLLILIGATTANPFHSINPAIRSRCQIFELTPLTTDEIKVALTRALTDKTHGLGEEPVVISDEALAHFAFACGGDVRSALNGLELAVRSTQPNVKGEKEITLSVAEECIQRKSFHHDKDGDAHYDVLSAFQKSIRGSDVNAALHYLARLIEAGDLVSIGRRLLVIAYEDIGLANPQAGPRTLAAIEAAERLGFPEGRIPLANAVVELCLSPKSNSAYVALDAAIADIRKGHVGSVPAHLKDAHYKGAEQLGRGIGYKYPHDYERGWVKQQYLPDSLKSRAYYEPKRTGKFEDALADVYEKLRKSTFSEGHHHHHH | soluble |
| NEKETISYIINTSKNIVIFALSPDKTKASYRVAEFLQRKNYKIFPIYPKEEFILNEKVYRNLDQIEEKIDTLILFRKGEVALEILPKLVEKNIKNLWLQLDISNETAKEECKKLDINFIQNRCIMLEYPHFK | not soluble |
| MRLSDAEILHELRHTPLKELGERAYEVKKRLHPKRITTFVVDRNINYTNICWVDCKFCAFKRKLSQEETYILSFEEIDRKIEELIAIGGTQILFQGGVHPELKIEWYENLVSHIAQKFPEITIHGFSAIEVDYIARLSKLSLKETLQRLQAAGLSSIPGAGAEILSDRVRDIIAPKKLSADRWIEVHRTAHQIGMKSTATMMFGTIEEEEDIIEHWRRIRELQEETGGFRAFILWSFQPHHTPLKAEFPHLQKSSSNRYLRLLAASRLYLDNFPNLQSSWVTQGSYIGQMALLFGANDLGSTMMEENVVSAAGARNQMNQEEMIALIKDVGELPAKRNTAYEILERY | not soluble |
| MAAKPILYSSWSSGCSSRVRTALALKKIDYEYQPVNLLNKQKEQEFHGNNPAEKVPILKINGLTLTESMAIIEYLDEIYPDPPLLPKEPELKARARAIAFHIASNIQPLQNKPIYLMLNEKEPGYGDFWCQHFISKGFKALEELLQMHSGDFCVGNQISIADICLPSIVYNAIEKYHVDMTPYPIITRISNKLAELPEFQVAHPNNQPDAPKN | not soluble |
| MRIQVNAKGAARLLSRHLWVFRRDVVSGPETPGLYPVYWGRRFLALALYNPHTDLAVRAYRFAPAEDPVAALLENLAQALARREAVLRQDPEGGYRLVHAEGDLLPGLVVDYYAGHAVVQATAHAWEGLLPQVAEALRPHVQSVLAKNDARTRELEGLPLYVRPLLGEVPERVQVQEGRVRYLVDLRAGQKTGAYLDQRENRLYMERFRGERALDVFSYAGGFALHLALGFREVVAVDSSAEALRRAEENARLNGLGNVRVLEANAFDLLRRLEKEGERFDLVVLDPPAFAKGKKDVERAYRAYKEVNLRAIKLLKEGGILATASCSHHMTEPLFYAMVAEAAQDAHRLLRVVEKRGQPFDHPVLLNHPETHYLKFAVFQVL | soluble |
| MADNSDANGVPYYFLINMGGGFVEGEQYQVTIDVNKDAHALVTTQTPTYVYKCEKGQLTQQNTSITLEENSYLEYMADEVIPYLKSRYFQTSRIDMDKSAHLIYSDGVTAGWSHEDLPFQYHYFRNLTQIYQDNELVYSDQTLLEPEKQDMFKLGYFEGWRNYNSLVMVSPNIDEAFVKALQKHLEGLNLESDFAISSLDISGLVLRILGKTAEDNRRIIYSCADYFRQEIHGLTPLNLRKNDMRRLEHHHHHH | not soluble |
| NLYFQGHMVLKLLLELGAERYAEQFAAKCHELGMVMKESAGPGRVPVPVTLQPSMISRGEFGTLCCMQPLWNEAVDNTARNFTFLRDALQETAASDVNFTGKLLNMLQEVYLSGGPFQQLMLGIFRTDYMREGVYDKMLSTTASRWKNVEINTISCSFAGLSPLITEFHQHIAAYLQVLQKARGKEDDDGVENMSWIWGKGNCRLERSVSGDVVPKAIADAVRAWVEQQKFASLRASWEQFQQNEVGSGEIHQLGVLDTAPVVLVVVQENERNTADQYALLMRVLEEHRIRFIFRTLQELHLSLKLHSISPEQPPLAVVDGHYPIAVAYFRSTYVPEDFPTDATWAARLSLERSSAIKCPSIPYHLLTFKKLQQLLCDVDRVLVPVAFCGDSDKAGLLQRHFVPQYSLNPKEVGEEAVEKVIHDVLQRPDQFVLKPQLEGGGNLLSGETMVKALKATKEGDPVTYSKVRCEYVVMSRIQFHVSTGSLLARGDVVQLERNMCSEVGIFGVILSAAKGSSVGTNGSSVLFNTFAGYTVRSKPADADDGGVMAGVAALDSLAVVP | soluble |
| MTAFAAASPRAAVRTGFDGLAISVATRAMMKNLDQNFDAILITGPTASGKSALALRLARERNGVVINADSMQVYDTLRVLTARPSDHEMEGVPHRLYGHVPAGSAYSTGEWLRDISGLLSDLRGEGRFPVIVGGTGLYFKALTGGLSDMPAIPDDLREGLRARLIEEGAAKLHAELVSRDPSMAQMLQPGDGQRIVRALEVLEATGKSIRDFQRASGPMIIDPERAQKFIVLPERPVLHDRINRRFEAMMDSGAVEEVQALLALNLAPDATAMKAIGVAQIADMLTGRMGAAEVIEKSAAATRQYAKRQMTWFRNQMGDDWTRIQPAAALEHHHHHH | not soluble |
| MDIIERITKLKNEKNAVILAHNYQPEEIQKIADIIGDSLELCIAARDTDADVIVFCGVDFMAETAKVLNSGKKVLIPEIIETDCPMAHQLPPEIILEAKKKNPDAKVVIYVNTLASAKALADATCTSANADKVVNSFEEDEILFGPDNNLGYFVSKRSNKKIIPMPEGGHCYVHKMFTLDDAKAVKEKYPNAELLIHPESDPKLQETADYVMSTGGMVKHVLNSECSEFIIGTECDMISRLKIELEKAGKSKKLIPLRTDAICKSMKNITLEKIEKCLLEEKHEIMLDEKIIENARKAIERMLSILEHHHHHH | not soluble |
